From patent US20250027068

Molecular target: pooled human IgG

Protein | Enzyme Activity Endpoint Assay (purified): Fab'2 [ng/µL] | Enzyme Activity Endpoint Assay (purified): Fc [ng/µL] | Enzyme Activity Endpoint Assay (purified): IgG [ng/µL] | Enzyme Activity Endpoint Assay (purified): scIgG [ng/µL] | Enzyme Activity Endpoint Assay: Fab′2 [ng/µL] | Enzyme Activity Endpoint Assay: Fc [ng/µL] | Enzyme Activity Endpoint Assay: IgG [ng/µL] | Enzyme Activity Endpoint Assay: scIgG [ng/µL]
PRT-151 (protein) MANQEIRYSEVTPYHVTSVWTKGVTPPANFTQGEDVFHAPYVANQGWYDITKTFNGKDDLLCGAATAGNMLHWWFDQNKDQIKRYLEEHPDKQKINFNGEQMFDVKEAIDTKNHQLDSKLFEYFKEKAFPYLSTKHLGVFPDHVIDMFINGYRLSLTNHGPTPVKRQTKDPRGGIFDAVFGRGDSTKLLTSRHDFKEKNLKEISDLIKKELTEGKALGLSHTYANVRINHVINLWGADFDSNGNLKAIYVTDSDSNASIGMKKYFVGVNSAGKVAISAKEIKEDNIGAQVLGLFTLSTGQKSWNKTN | 521 | 137 | 0 | 0 |  |  |  | 
PRT-14 (protein) MANQEIRYSEVTPYTVTSVWTKGVTPPADFTQGEDVFHAPYIANQGWYDITKTFNGKDDLLCGAATAGNMLHWWFDQNKEQIERYLKKHPEKQKINFNGEQMFDVKEAIDTKDSQTDSELFEYFKEKAFPYLSTKHLGVFPDHVLDMFINGYRLSLTNHGPTPVKEGSKDPRGGIFDAVFTRGDQSKLLTNRHDFKEKTLSEISDLIKKELTEGKALGLSHTYANVRINHVINLWGADFDSEGNLEAIYVTDSDSNASIGMKKYFVGVNSAGKVAISAKEIKEDNIGAQVLGLFTLSTGQDIWNQTN |  |  |  |  | 18 | 94 | 13 | 43
PRT-152 (protein) MANQEIRYSEVTPYHVTSVWTKGVTPPANFTQGEDVFHAPYVANQGWYDITKTFNGKDDLLCGAATAGNMLHWWFDQNKTQIERYLKKHPEKQKINFNGEQMFDVKEAIDTKNHQLDSKLFEYFKEKAFPYLSTKHLGVFPDHVIDMFINGYRLSLTNHGPTPVKEGSKDPRGGIFDAVFTRGDQSKLLTSRHDFKEKNLKEISDLIKKELTEGKALGLSHTYANVRINHVINLWGADFDSNGNLKAIYVTDSDSNASIGMKKYFVGVNSAGKVAISAKEIKEDNIGAQVLGLFTLSTGKDSWEKTN | 614 | 158 | 0 | 0 |  |  |  | 
PRT-156 (protein) MANQEIRYSEVTPYHVTSVWTKGVTPPTDFTQGEDVFHAPYKANQGWYDITKTFNGKDDLLCGAATAGNMLHWWFDQNKDQIKRYLEEHPEKQKINFNGEQMFDVKEAIDTKNHQLDSKLFEYFKEKAFPYLSTKHLGVFPDHVIDMFINGYRLSLTNHGPTPVKEGSKDPRGGIFDAVFTRGDQSKLLTSRHDFKEKNLKEISDLIKKELTEGKALGLSHTYANVRINHVINLWGADFDSNGNLKAIYVTDSDSNASIGMKKYFVGVNSAGKVAISAKEIKEDNIGAQVLGLFTLSTGQDSWNQTN | 772 | 205 | 0 | 0 |  |  |  | 
PRT-154 (protein) MANQEIRYSEVTPYHVTSVWTKGVTPPANFTQGEDVFHAPYVANQGWYDITKTFNGKDDLLCGAATAGNMLHWWFDQNKTQIEAYLKKHPEKQKINFNGEQMFDVKEAIDTKNHQLDSKLFEYFKEKAFPYLSTKHLGVFPDHVIDMFINGYRLSLTNHGPTPVKEGSKDPRGGIFDAVFTRGDQSKLLTSRHDFKEKNLKEISDLIKKELTEGKALGLSHTYANVRINHVINLWGADFDSNGNLKAIYVTDSDSNASIGMKKYFVGVNSAGKVAISAKEIKEDNIGAQVLGLFTLSTGKKSWEKTN | 733 | 191 | 0 | 0 |  |  |  | 
PRT-155 (protein) MANQEIRYSEVTPYHVTSVWTDGVTPPANFTQGEDVFHAPYVANQGWYDITKTFNGKDDLLCGAATAGNMLHWWFDQNSTQIEAYLKKHPEKQKINFNGEQMFDVKEAIDTKNHQLDSKLFEYFKEKAFPYLSTKHLGVFPDHVIDMFINGYRLSLTNHGPTPVKEGSKDPRGGIFDAVFTRGDQSKLLTSRHDFKEKNLKEISDLIKKELTEGKALGLSHTYANVRINHVINLWGADFDSNGNLKAIYVTDSDSNASIGMKKYFVGVNSAGKVAISAKEIKEDNIGAQVLGLFTLSTGKKSWEKTN | 751 | 197 | 0 | 18 |  |  |  | 
PRT-153 (protein) MANQEIRYSEVTPYHVTSVWTKGVTPPANFTQGEDVFHAPYVANQGWYDITKTFNGKDDLLCGAATAGNMLHWWFDQNKTQIERYLKKHPEKQKINFNGEQMFDVKEAIDTKNHQLDSKLFEYFKEKAFPYLSTKHLGVFPDHVIDMFINGYRLSLTNHGPTPVKEGSKDPRGGIFDAVFTRGDQSKLLTSRHDFKEKNLKEISDLIKKELTEGKALGLSHTYANVRINHVINLWGADFDSNGNLKAIYVTDSDSNASIGMKKYFVGVNSAGKVAISAKEIKEDNIGAQVLGLFTLSTGKDSWKKTN | 619 | 190 | 0 | 0 |  |  |  | 
PRT-157 (protein) MANQEIRYSEVTPYHVTSVWTKGVTPPEDFTQGEDVFHAPYKANQGWYDITKTFNGKDDLLCGAATAGNMLHWWFDQNKDQIKRYLEEHPEKQKINFNGEQMFDVKEAIDTKNHQLDSKLFEYFKEKAFPYLSTKHLGVFPDHVIDMFINGYRLSLTNHGPTPVKEGSKDPRGGIFDAVFTRGDQSKLLTSRHDFKEKNLKEISDLIKKELTEGKALGLSHTYANVRINHVINLWGADFDSNGNLKAIYVTDSDSNASIGMKKYFVGVNSAGKVAISAKEIKEDNIGAQVLGLFTLSTGQDSWNQTN | 806 | 198 | 0 | 0 |  |  |  | 
PRT-158 (protein) MANQEIRYSEVTPYHVTSVWTKGVTPPTDFIKGEDVFHAPYKAHQGWYDITKTFNGKDDLLCGAATAGNMLHWWFDQNKDQIKRYLEEHPEKQKINFNGEQMFDVKEAIDTKNHQLDSKLFEYFKEKAFPYLSTKHLGVFPDHVIDMFINGYRLSLTNHGPTPVKEGSKDPRGGIFDAVFTRGDQSKLLTSRHDFKEKNLKEISDLIKKELQEGKALGLSHTYANVRINHVINLWGADFDSNGNLKAIYVTDSDSNASIGMKKYFVGVNSAGKVAISAKEIKEDNIGAQVLGLFTLSTGQDSWNQTN | 637 | 163 | 0 | 0 |  |  |  | 
PRT-159 (protein) MANQEIRYSEVTPYHVTSVWTKGVTPPTDFIKGEDVFHAPYKAGQGWYDITKTFNGKDDLLCGAATAGNMLHWWFDQNKDQIKRYLEEHPEKQKINFNGEQMFDVKEAIDTKNHQLDSKLFEYFKEKAFPYLSTKHLGVFPDHVIDMFINGYRLSLTNHGPTPVKEGSKDPRGGIFDAVFTRGDQSKLLTSRHDFKEKNLKEISDLIKKELQEGKALGLSHTYANVRINHVINLWGADFDSNGNLKAIYVTDSDSNASIGMKKYFVGVNSAGKVAISAKEIKEDNIGAQVLGLFTLSTGQDSWNQTN | 637 | 184 | 0 | 0 |  |  |  | 
